Assay results: US20130331517A1, “Novel Polymer Derivative Of Cytidine Metabolic Antagonist” (NIPPON KAYAKU KABUSHIKI KAISHA, priority 2010, published 2013)

Key:
[1] = Medicament release of 3′-ethynylcytidine polymer derivative in the absence of enzyme (PBS, pH 7.4, 37° C.); type: physicochemical; settings: 1 mg/mL, no hydrolysis enzyme
Method: Compound 5, Compound 10, Compound 15, Compound 21 and Compound 22, and PEG-Glu-ECyd in which 3′-ethynylcytidine derivative is bonded to a polyethylene glycol-polyglutamic acid block copolymer, and PEG-Glu-(ECyd, PheOBzl) in which 3′-ethynylcytidine and phenylalanine benzyl ester are bonded to a polyethylene glycol-polyglutamic acid block copolymer, which were manufactured by the method described in the pamphlet of WO 2006/120914 A as the comparative compounds, were dissolved in PBS solution (phosphate buffered saline; pH 7.4) at 1 mg/mL of the concentration, respectively, and incubated at 37° C. The 3′-ethynylcytidine released from each polymer derivative was quantified using HPLC. The ratio to the total amount of the medicament in the polymer derivative found out from the quantified value and the content of the medicament of the polymer derivative are indicated in FIGS. 1 to 3.

[2] = Particle size (RMS radius) and micelle formation in aqueous solution by dynamic and static light scattering; type: physicochemical; settings: aqueous solution 1 mg/mL; for RMS radius by Gaussian distribution analysis (dynamic light scattering): volume weighting
Method: Hereinafter, the present invention will be further explained with Examples. However, the present invention is not limited to these Examples. Meanwhile, when the compound of the present invention forms particles such as a micelle in an aqueous solution in Examples, the size of the particles (particle size) is indicated with Gaussian distribution analysis by dynamic light scattering method or by static light scattering method as RMS radius. The former was measured with Zeta Potential/Particle sizer NICOMP™ 380ZLS (manufactured by Particle Sizing Systems), and the latter was measured with DAWN EOS™ (manufactured by Wyatt Technology), and calculated.

[3] = system: human lung cancer LC-11-JCK; experiment: Anti-tumor activity test, human lung cancer LC-11-JCK transplanted subcutaneously in F344 nude rat; type: in vivo; settings: for Relative ratio of tumor volume: F344 nude rat, day 23 after administration start, relative to no-treatment group (100.0); for Anti-tumor effects in comparison to 3′-ethynylcytidine as the control drug: maximum dose, when the change of the body weight was about 10% or less of the maximum decrease rate
Method: The human lung cancer LC-11-JCK which had been subcultured under the skin of a rat was made to a block of about 2 mm square, and transplanted subcutaneously into the dorsal part of F344 nude rat using an over-needle catheter. From day 13 after the tumor transplant, the polymer derivative of the present invention (Compound 5, Compound 10) was administered intravenously single time in the dose listed in Table 1. In addition, the control drug (3′-ethynylcytidine; ECyd) was administered subcutaneously by infusion over 24 hours using Alzet pump. Meanwhile, each compound was used as dissolved in 5% glucose solution. The administration was performed such that the dose when the change of the body weight was about 10% of the maximum decrease rate was taken as the maximum dose.
The tumor volume was measured on the start day of the administration and on day 23 after the administration start with vernier calipers for the major axis (L mm) and minor axis (W mm) of the tumor, and the tumor volume was calculated from (L×W^2)/2, and the relative ratio of the tumor volume with respect to the tumor volume of the no-treatment group (control) was listed in Table 1.

[4] = single intravenous administration, dose 6 mg/Kg in conversion to 3′-ethynylcytidine
[5] = single intravenous administration, dose 12 mg/Kg in conversion to 3′-ethynylcytidine

Compound: amide-bonded body of block copolymer including methoxy polyethylene-glycol structural moiety having 12,000 of the molecular weight and polyglutamic acid moiety having 21 of the polymerization number, to aspartic acid-1-adamantane methyl amide-4-(3′-ethynylcytidine)amide [Compound 15]
- Release of 3′-ethynylcytidine from the polymer derivative [1]: release 3′-ethynylcytidine despite the absence of a hydrolysis enzyme
- Release rate of 3′-ethynylcytidine relative to the comparative compounds [1]: equal to or more than that of the comparative compounds
- Micelle formation in water [2]: formed a micelle in water
- RMS radius by static light scattering method [2]: 13 nm
- RMS radius by Gaussian distribution analysis (dynamic light scattering) [2]: 20 nm

Compound: amide-bonded body of block copolymer including methoxy polyethylene-glycol structural moiety having 12,000 of the molecular weight and polyglutamic acid moiety having 21 of the polymerization number, to aspartic acid-1-butyl amide-4-(3′-ethynylcytidine)amide [Compound 10]
- Relative ratio of tumor volume [3, 4]: 46.7
- Relative ratio of tumor volume [3, 5]: 26.4
- Anti-tumor effects in comparison to 3′-ethynylcytidine as the control drug [3]: strong anti-tumor effects
- Release of 3′-ethynylcytidine from the polymer derivative [1]: release 3′-ethynylcytidine despite the absence of a hydrolysis enzyme
- Release of 3′-ethynylcytidine relative to PEG-Glu-ECyd [1]: more rapidly than PEG-Glu-ECyd
- Release rate of 3′-ethynylcytidine relative to the comparative compounds [1]: equal to or more than that of the comparative compounds
- Micelle formation in water [2]: did not form a micelle in water at this concentration

Compound: amide-bonded body of block copolymer including methoxy polyethylene-glycol structural moiety having 12,000 of the molecular weight and polyglutamic acid moiety having 21 of the polymerization number, to aspartic acid-1-phenylbutyl amide-4-(3′-ethynylcytidine)amide [Compound 5]
- Relative ratio of tumor volume [3, 4]: 44.9
- Relative ratio of tumor volume [3, 5]: 29.3
- Anti-tumor effects in comparison to 3′-ethynylcytidine as the control drug [3]: strong anti-tumor effects
- Release of 3′-ethynylcytidine from the polymer derivative [1]: release 3′-ethynylcytidine despite the absence of a hydrolysis enzyme
- Release of 3′-ethynylcytidine relative to PEG-Glu-ECyd [1]: more rapidly than PEG-Glu-ECyd
- Release rate of 3′-ethynylcytidine relative to the comparative compounds [1]: equal to or more than that of the comparative compounds
- Micelle formation in water [2]: forms a micelle in water
- RMS radius by static light scattering method [2]: 11 nm
- RMS radius by Gaussian distribution analysis (dynamic light scattering) [2]: 18 nm

Compound: C#C[C@@]1(O)[C@@H](CO)O[C@@H](n2ccc(N)nc2=O)[C@@H]1O [Control drug, 3′-ethynylcytidine, reference compound]
- Relative ratio of tumor volume ([3]; subcutaneous infusion over 24 hours using Alzet pump, dose 6 mg/Kg): 49.4

Compound: amide-bonded body of block copolymer including two methoxy polyethylene glycol moieties having 5,000 of the molecular weight and polyglutamic acid moiety having 21 of the polymerization number, to aspartic acid-1-adamantane methyl amide-4-(3′-ethynylcytidine)amide [Compound 22]
- Release of 3′-ethynylcytidine from the polymer derivative [1]: release 3′-ethynylcytidine despite the absence of a hydrolysis enzyme
- Release rate of 3′-ethynylcytidine relative to the comparative compounds [1]: equal to or more than that of the comparative compounds
- Micelle formation in water [2]: formed a micelle in water
- RMS radius by static light scattering method [2]: 8 nm
- RMS radius by Gaussian distribution analysis (dynamic light scattering) [2]: 14 nm

Compound: amide-bonded body of block copolymer including methoxy polyethylene-glycol structural moiety having 12,000 of the molecular weight and polyglutamic acid moiety having 21 of the polymerization number, to aspartic acid-1-phenylalanine-(4-phenylbutyl ester)-4-(3′-ethynylcytidine)amide [Compound 21]
- Release of 3′-ethynylcytidine from the polymer derivative [1]: release 3′-ethynylcytidine despite the absence of a hydrolysis enzyme
- Release rate of 3′-ethynylcytidine relative to the comparative compounds [1]: equal to or more than that of the comparative compounds
- Micelle formation in water [2]: formed a micelle in water
- RMS radius by static light scattering method [2]: 40 nm
- RMS radius by Gaussian distribution analysis (dynamic light scattering) [2]: 41 nm
